Data published in the domain aggregation screens of Martell et al. (2025).

Test: soluble fraction after stress (log2 fold change); higher = more stays soluble; pooled small domains, quantitative proteomics
Settings: stress: 75 degC
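Also: 20 min heating vs room temperature control held 20 min.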

Sequence	soluble fraction (log2)
HMLPELQPGQTFSARIQQALPDNTYRALVAGKQLTLQLPEGAKAGDELELVVLDRSARVIIARQVD	-0.691
HMLPGERFKVKIAQAGKEKKQGIGYLNDGTMVVIENGIEKVGEEVEAVVIKVIQSSAGKIIFSEVAK	0.0862
HMLPGKEIPLPEFLREAFARNEPALENFQNLAPSYRRQYILWITSAKTPETVQKRISESIGLLKENRKLGM	-0.616
HMLPGLGPIERAQFMLQAIPGISPTRSAALIDKFGSIAGIAQASIKDIQTIEGIGKKTATTLYEVLNAG	-0.39
HMLPISGDDRDALDMAALILKQYDSLPILKEFANVVTKLQTVLDGVVSNSIEARRQMIQFEE	0.0649
HMLPITPGQKYKFVVKSAEEAAAIIRDKLGEMAQVISVRQVEGEGLARFLKSPKLEIIAQVPVA	-0.35
HMLPLGSNEYETAVIKHLASGVQDADEIQRLTGIDQTSLNTALTMLELAGTIRPLGNNHWTL	0.459
HMLPLHFIEIVSLKKIDTLTKRKELINYAFSKNEKTYIYKLAFKKKSELDNLYKEINLFNEIINIDIRHS	-0.577
HMLPLPRFASLDSSEANLRAGPGKDYPILWVYQRKGLPVEIIQEFDTWRRIRDRDGTVGWVQQNLL	-0.351
HMLPNIKSEMEILGDNAKARLEAAELWSKKYLSNEAYDTMSKLATTADGVKAIEEIMNITKS	0.0754
HMLPSELLAQQRIVVQPGHNLWRIARATYGRGARYTVIYQANREQIADPNRIFPGQVFALPAA	-0.102
HMLPSMENWLGELSFWQTPWWERRDFSTFDNIAQSKEELDEFMSRDDNGAILERMQDPINTIEAE	-0.285
HMLQGKVSFFNDEKGYGFIKDNNSKDSYFVHINKVEGEIAEGDKVTFELEKGPKGLVAANVKR	0.0967
HMLQIGDEEFIENIVKQVIDENQKAVDDYKKGKEKVMAFLIGQVMKKTKGKVNSEIVEKTIKKL	-0.211
HMLQKEVHQQIQQALRALPYHQRTAIVLYYYEGMSVKEIAQATGSMQGTVQSRLFFARKKLRPILESILKK	-1.15
HMLQQNRAVEAEQLARKGLSYAQSNIQQAALWRLVAEATEQQGKVDAALNAKNKAMQLEMAG	0.248
HMLRTLSTSEFAEAIGISESSARRLADSGDLRIRRTKGGHRKIPAEEAIRYAREIQATVVRPDLLGLST	-0.0139
HMLRVVSTRQAFDIVRGWADAHPQDPEHNKTLDELEELAKKEVWDDWSRTNEIAERLNALLVSIGANVRTA	-0.961
HMLSDEEKMAALNEQARQRGFTISPGVLPYLITHYQRDMHSLSMILDALDRYSLQTKRTITLPLLHDLLQQ	-1.04
HMLSKEFRFFTYLLESYAQHKNTTAGAVLKTLDEKGLTDFVYKMYDLYHVEAIENAYMDLDSLIATGKPA	-3.64
HMLSKGDRVSWDTPQGRTQGEVVEKKTKDFEHDGQKFTASDDDPAFIVKSEKSGAEAAHKGSALNK	-0.000228
HMLSLGIMEADMLKTGKHTISGISKATPEQRQKIDSDIEELKKKYPEKNITSKVENDNLIVESGVTAP	0.029
HMLSNKIEQLRKEKGYTFAKLSELSGISTGRLSDLATGKRNNPTMDTLIKLADALDVTLDELVGR	-0.26
HMLSNYIGMTLGEAKRNLGQGVNITVNGPNNDNAEVTGQDPTSGSSFDKSKDTITLTT	0.148

Sequence	soluble fraction (log2)
HMLSPAQSLLLRTAARRPDGRVIPPDTLRGGARVKVLTSLLQRGWIEPVDGGHVLTDAGYAAIG	-0.819
HMLSTNDYNENKNKLIKDFEIKFIIKHLKLNKGNVAATARSINFHPVSLRQKIAKLGIDVDEVMAG	-2.59
HMLSTQEYIKKNIENGSWKVGEKIPSENNLTEILGVSRASIRVAIQQFIALDVLNSIHGKGTFVKTNNIMG	0.112
HMLTALTDREEEILVLLAHNLSNKEIAKRLNLSVNTVRNHTSHIYEKLNVTSRRKAITLAQSLHLLPP	-1.48
HMLTAPMPGIVRQVNVDTGQKVRKGQPLMVLEAMKMEHQIIAPQAGKIEAIHYNEGDRVEMGSVLISIF	-1.17
HMLTAPMPGIVTEILVKEGQRVRSGQPLMILEAMKMEHQVTAPKSGQIEKIYFSEGEKVDMGSDLLSIS	0.5
HMLTEEVEISLMDMTKPTQPATIKTTATIQKGATTVMPKQIKMPEGYEFYGNYKMDQPFELTMTFVVKKI	-1.17
HMLTGESDNVEKSINKLGTENLALADQTNMGFKGTFINSGHGMAIVVKTGMQTELGKIASMIQIA	0.218
HMLTGISALKPTEAFPDEIFYEIFEIEDNIERTQYIESLRNTARQLKRVTEFNNLYKSFVLDYAQRQKQ	-1.93
HMLTKAEEQVMDYLWKLEKAFVKDILDEFPEPKPAYTTVSTMVRILEKKGMVGYTAYGKNHQYYPL	-1.97
HMLTKSELVFDTLKKRIIDGELEPGTELVISRISEEFNVSTIPVREAIKTLASEGLVEMEPHKSAKVAE	-0.0052
HMLTKSVLGNQIKVLRLEKGLSQEEFGAPVDLSRSAVSQIESGQMYPSLESIGKIVKYYSTSWDNLVG	-0.846
HMLTLDEKRRLQIMRVQVALTSLGLYNGRVDGVLNAETKLGLEFFQDLKGLPKSGTMTTPTLNALGVPA	-2.43
HMLTLSGPEHAVVRALWPEPELDFDVLIRKTGLPSAQLMTLAMQLEMKKIIRRLPGRRLALMDDIRR	-3.98
HMLTRSTVNVETGTAAIGLGKLYGVYDMSRKGLKYSFSVDSDAMTKVMEMLLPLGIKSLTVEPPS	-1.55
HMLTTADLMMVHANSNKAIDYIVTDDNTKLTVDEPVTAKWITTADSIYRAVAYYNKVGDGKAQIVSVGN	-0.0103
HMLTYPEHVRLRMIELRKTRSLSQSEFGTYLGLSYQTISSLELGRHEWSLAHIQTALLRFELPPNYF	-4.27
HMLVATFGPTTGWEGREIIWDVDRFILVGHGAVPAAGVLDYDRRGQLIWAQPELRAWVVEVDRWETG	-2.22
HMLVMTDNVIKAINDLLNYEAAAGIKKKQRYTAYQIYKELSEQGVYHGSRRRMEEVVSKLRVERNQI	-2.79
HMLVPWKSANLFKLVEPNFRLAERKIPMLPSADREKLQEIMSDMKDAIVDNDKMALMKLDEELTDFLFDFV	-1.49
HMLVSPLDEIPGIGRNRKKTLLNHFGSAKTIEGASLEDLKKVDGISELIAKKIYNYFHLNKNF	-0.85
HMLWTDTKYVTVPDFVGKEPKEIESSYLYNIEYHGEGTKVISQQPAAFSRTIEGGTVRLYLG	-0.0387
HMLYGRRFQVEGLNLERYLRAAADSGIPLKGARRFGRTLTGVAAEEHMAALEALARQGGWLFTPLEAVGAN	-0.948
HMLYKNIAKKLRFRINSDEFAIGDVLPTERQLMEEYQASRVSIRKAIDELVAIDLIEKKQGSGTYIKQKEV	-1.89

Sequence	soluble fraction (log2)
HMMESLGIRLKRLRKDKGLTQVELGKLSGVTGVTIGYWEKDLNEPGSKALSKLAQALGTTESYLLYGVS	-1.21
HMMNNKEIGTRIAVLRKGMGDSQAKLAERLDVSPQAVSKWETGQSLPDIGNLLKLSWLFRTSINHILEGS	-2.18
HMNADAPWSPFSPGFTGPMNRPVIGLVTKADLANPQRISLVESWLVQAGAQKVFVTSALENTGVDEMFIFL	-0.152
HMNADLDIQNVNGNTPLWEAVMRYRGDGFFIEQLLKNGANPDIKNNYGVSPKSLARTIANYDVRRFFN	-0.281
HMNADSLIGENIRISERVSNMDQTGMAVVHGQEWTVRTRNDNEIIEPGEEAKILAISGVKLIVEK	-0.136
HMNAESLIGDRAVVTVAIERNKRGRVDVTGQDWAATTRDGEEIKVGQEVLVVGISGVALIVEER	-1.1
HMNAIYKFVLGMIGKRSGVVTTLPSKKQVEFQANMLAEKFMQNGIDPNALKSPEQVKNVLANIDQ	-1.13
HMNALVAKYKQGVTEEQQQGQGIIIIKRVVVRDQEAWVYEKKIFDWGGVSYFRDKQRITASTFNQETAL	-2.79
HMNAQLTTQEAADLLNVSRPHLVKLLEDGELPFLRTGKHRRVRLADLLQFKNAREQASVQAMDELSRQAQ	-0.103
HMNARSTSYSDFIARVDKDEVASVRLDGETVTYQAADGTTYTTVKPESDPIAERLIAKGIEVNVVRQ	-0.348
HMNASITVPDVRNLTVKQASEQLLASGFTPIPYAATKDGVGNDIVYAQDPPPSVLARSGDQITITYNPA	0.0994
HMNASTVTLENFEGAKYDDVYGKYDYQFSVTYEQTDKYESGVIISQKPEAGTKIIKGSQVSLVVAT	0.115
HMNASVIADLFRQTGASVMIHGHTHRPDIHALEANGDAAFRAVLGAWHTEGSMIRVTQDDVTLIAFP	0.0461
HMNATLEQLTQREREIAVLMAEGLTNAQIGSRLNVSMASVKAHLSHIFTKLGVDNRVSAAMMVL	-0.868
HMNATPDMERYWASSAAEGRALEPLYAVSRGDGGEPLWWSPSRAQAERMAREEGGPLTVDRIDPP	0.113
HMNAVYAEERRAYILAALEKRGTVHSYELAEQMGVSRETIRRDIMELSNRGLLVKTHGGAIST	-1.45
HMNAYEVLIPNIYIGQRVDQTLASLFPQFSRSRLQNWLARGNLLIDGEIIKPKTKVLGGEQIIILDT	-1.72
HMNDAEEKAEAIEGVKNFMANMEKTDIDFKSKESVLLEQVEEIRKNYPVAQWPVIVKQLYNNIGRL	-0.0997
HMNDIDKFVAALVDQDTMAGTNRAFDENDIQTMKNMSSIEDVKQYAVANGLSSGKVNNALISAGL	0.234
HMNDIQIILQEAVARLPKKQQLVFNMKYFDHLKYQEISEILGTSVGGLKASYFQAVKKIENYIINKH	-2.27
HMNDRLFQILYLLLEKGTMTAPELSRALEVSVRTIYRDIDALSLAGVPVYATQGKNGGVSLLPNY	-2.46
HMNDTLQEYFEALERLKSNNPINVPKNTKINNDSVALEAGRKRGSIKKSREIFAELIEAINNAS	-0.303
